Laboratory results taken from paper PMC10279920, “Single-molecule visualization of Pif1 helicase translocation on single-stranded DNA” (The Journal of Biological Chemistry, 2023).
Residue numbers refer to the chain shown, from its start.

Experiments:
Test in all cases: EMSA; no ATP, 5 mM Mg2+; 35 mM Tris-HCl pH 7.5, 1 mM DTT, 5 mM MgCl2, 60 mM KCl, 0.1 mg/ml BSA, no ATP, 30 min at 30 C; 5 nM ssDNA
Details in all cases: protein: recombinant; tags: N-terminal superfolder GFP; Ni-NTA purified; label: 5' Alexa647
[1] = molecular target: T1, GFP-Pif1 L310A (Saccharomyces cerevisiae, UniProt P07271 40-859, L310A)
T1 sequence: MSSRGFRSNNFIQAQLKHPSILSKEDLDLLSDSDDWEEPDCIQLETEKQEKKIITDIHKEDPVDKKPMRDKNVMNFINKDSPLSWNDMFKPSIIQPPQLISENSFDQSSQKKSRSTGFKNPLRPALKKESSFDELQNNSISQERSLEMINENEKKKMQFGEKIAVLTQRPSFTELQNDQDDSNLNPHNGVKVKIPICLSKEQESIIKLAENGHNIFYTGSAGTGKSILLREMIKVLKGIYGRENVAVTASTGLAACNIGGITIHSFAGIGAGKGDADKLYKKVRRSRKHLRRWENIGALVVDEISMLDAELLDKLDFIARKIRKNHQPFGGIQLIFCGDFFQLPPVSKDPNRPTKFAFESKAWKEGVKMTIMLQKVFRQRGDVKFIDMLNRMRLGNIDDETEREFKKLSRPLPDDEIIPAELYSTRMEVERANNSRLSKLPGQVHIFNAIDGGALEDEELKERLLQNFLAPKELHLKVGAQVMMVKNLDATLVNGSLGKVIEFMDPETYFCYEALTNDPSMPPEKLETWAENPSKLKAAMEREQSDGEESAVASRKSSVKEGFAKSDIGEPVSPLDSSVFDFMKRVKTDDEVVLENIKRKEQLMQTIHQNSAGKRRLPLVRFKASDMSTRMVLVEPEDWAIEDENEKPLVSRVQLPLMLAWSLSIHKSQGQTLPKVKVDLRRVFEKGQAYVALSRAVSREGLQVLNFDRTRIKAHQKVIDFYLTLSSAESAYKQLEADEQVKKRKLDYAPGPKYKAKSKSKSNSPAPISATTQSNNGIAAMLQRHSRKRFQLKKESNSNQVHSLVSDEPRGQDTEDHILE

[2] = molecular target: T2, GFP-Pif1 F723A (Saccharomyces cerevisiae, UniProt P07271 40-859, F723A)
T2 sequence: T1 sequence with A271L, F684A

[3] = molecular target: T3, Pif1 WT (GFP-Pif1) (Saccharomyces cerevisiae, UniProt P07271 40-859)
T3 sequence: T1 sequence with A271L

What does the source list for GCTAGCAGTAGCCAGCATCGAACGTACGATCGGTAACGTA (ssDNA) [40-nt ssDNA]?
Kd [1]: 27.8 nM; Kd [2]: 55.6 ± 18.5 nM; Kd [3]: 12.6 ± 3.81 nM
